Laboratory results from the supplement of paper PMC12764529.
± gives the half width of the 95% confidence interval.

Key:
[1] = folding stability dG unfold from trypsin proteolysis; higher = more stable
Outline: (§1)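 Bayesian fitting of sequencing counts gave K50 for each design. Unfolding free energy followed by setting this against a sequence-predicted unfolded-state K50 and a shared folded-state K50, either per protease or with trypsin and chymotrypsin combined. The designs, under 80 residues and lacking cysteine, were digested in a PA-tagged cDNA display format at 11 threefold-diluted protease concentrations and without protease, and only those with AlphaFold2 dimer inter-PAE above 15 were kept.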

[2] = folding stability dG unfold from chymotrypsin proteolysis; higher = more stable
Outline: as §1

[3] = folding stability dG unfold (combined trypsin and chymotrypsin); higher = more stable
Outline: as §1

Sequence	folding stability dG unfold [1]	folding stability dG unfold [2]	folding stability dG unfold [3]
SPIVKVRLRIELPDGKVLELELDVPLPLIKEALSKLIGEKYKVKIVKIDPIDPEKLKPGSTIEITLKAEPSA [r9_803_TrMRF]	3.72 ± 0.28 kcal/mol	4.76 ± 0.14 kcal/mol	4.59 ± 0.2 kcal/mol
SPKGIYIFMIQVKWKNPNGNEWTFPIMVPMDEMPEEELRDFIREFFPGFDDVDIEPQVMRIPPSPEAREKSA [r9_841_TrROS]	2.3 ± 0.16 kcal/mol	2.75 ± 0.17 kcal/mol	2.57 ± 0.28 kcal/mol
SPLELPSDEEITVNAEVLILPYNPETGEIEDEIPIPLPVKIKVKKDGSVEIEIDIPDSIPENVPIVLLLKSA [r9_90_TrMRF]	1.29 ± 0.062 kcal/mol	1.81 ± 0.14 kcal/mol	1.52 ± 0.19 kcal/mol
SPLKEGDTLTFTLPVPDLPNVRIEIDLHFYKDPNTDRYRVLANITVYYGDKPVTFSIEMPVDTFLDLLKSSA [r9_71_TrMRF]	2.99 ± 0.24 kcal/mol	2.34 ± 0.12 kcal/mol	2.87 ± 0.18 kcal/mol
SPLKPNDIRPIKFTSPIRNPDNGRPFRIKVEIWVMPEDPMVIIKDEIEPPNGRTREHTFWIPPGQKIEIPSA [r9_88_TrROS]	0.261 ± 0.13 kcal/mol	0.358 ± 0.33 kcal/mol	0.295 ± 0.3 kcal/mol
SPNFRISPEIKNAIKRALKENEPGKKVEIRMRYPDGPTIMISIDKPGSINIEVEPDPGKPIMEFEFDIKDSA [r9_132_TrROS]	0.732 ± 0.079 kcal/mol	0.825 ± 0.069 kcal/mol	0.873 ± 0.16 kcal/mol
SPPFKIKEIKIEIFPNGTVKIEYRFPSSGHYVKFSIPVDPKKGRIPINMEIYNPDNGKVWEFSATIRIKKSA [r9_825_TrROS]	3.34 ± 0.17 kcal/mol	4.86 ± 0.077 kcal/mol	4.69 ± 0.2 kcal/mol
SPPVSTTTPVPDPENGVVVATVTLTTDPTTGEKTLILKSPEGKTKTVTLSPDETFPVEGLPKGLTATSSVSA [r9_1150_JUSTAS]	-0.942 ± 0.47 kcal/mol	0.437 ± 0.082 kcal/mol	0.0862 ± 0.14 kcal/mol
SPRTTVSFEVYMPPDQLKQNSIEDIADRVRDHFPGYKIKGIDIKFEPYPDPENGRPWVRVTVMIRVEPPESA [r9_1189_TrROS]	2.34 ± 0.085 kcal/mol	3.28 ± 0.098 kcal/mol	2.96 ± 0.14 kcal/mol
SPSRPTLVTTYTFDPSGVPTATTKEITPEEVEELEKKGWKKLSEDPEKGLITLEKKLPTSPQKIEVTILPSA [r9_5_JUSTAS]	-0.402 ± 0.2 kcal/mol	0.0733 ± 0.27 kcal/mol	0.0748 ± 0.29 kcal/mol
SPSTTVETTVTIPYTYRLPDGTVLEYNLTISVTASLTNGGISTGDLKSAIDTALAAANIPPGPPDLPLLLRS [r1_175_JUSTAS]	0.738 ± 0.13 kcal/mol	2.31 ± 0.098 kcal/mol	1.83 ± 0.096 kcal/mol
SPTIKASYDPETGVLTVYVKLRDPETGEPIPAEAVAAKIKELFPDAEILDIEPNPDGYVKITVKVAPDAVSA [r9_87_TrMRF]	3.48 ± 0.11 kcal/mol	3.79 ± 0.086 kcal/mol	3.72 ± 0.071 kcal/mol
SPTQTITLTLPDRPVTVPLTAYPETGYVEITVTVTYPTGTKTYTFTVKAKSFEEVLAELSKLPEDFDINPSA [r9_713_TrMRF]	1.83 ± 0.073 kcal/mol	1.81 ± 0.088 kcal/mol	1.85 ± 0.052 kcal/mol
SPTVTETTLIASEEDPSSGVKTELTETTTIVKVGGTTTEVTTTTTTLTPEEDGKGTSTVTPSTTTTPIPASA [r9_375_JUSTAS]	0.84 ± 0.079 kcal/mol	1.45 ± 0.12 kcal/mol	1.29 ± 0.12 kcal/mol
SPVKIRIIVPKGMDPEMANFIVKEIMKHLGLPPGAPVEILPWEDLQKNPDVHQALEEAEKEGADIVILIRSA [r9_1147_TrROS]	3.08 ± 0.14 kcal/mol	4.16 ± 0.16 kcal/mol	3.84 ± 0.1 kcal/mol
SPVKWGEEKTYTYPFPDNPNYRIKIKVHVYKDPENGRPYVRMNIEVYNNGKPRKYNINMPVDQLKDLLQFSA [r9_71_TrROS]	2.22 ± 0.039 kcal/mol	2.66 ± 0.076 kcal/mol	2.57 ± 0.21 kcal/mol
SQNGGPKRKVTITIIIVIPPGQRNPDGKPRPSVEELARYLQKELQEQFPGNKDVKIDITIIPLGDPEQIKSA [r9_329_TrROS]	2.06 ± 0.069 kcal/mol	2.86 ± 0.15 kcal/mol	2.33 ± 0.21 kcal/mol
